Measurements reported in patent US20210101977A1.

Experiments:
[1] = target: full-length isoform 2 of human CD96 (SEQ ID NO: 128) expressed on cells (human) (UniProt P40200); assay: flow cytometry (MFI against concentration), Jurkat cells expressing human CD96 isoform 2
[2] = target: isoform 2 of cynomolgus monkey CD96 (SEQ ID NO: 133) expressed on CHO cells (cynomolgus monkey); assay: flow cytometry (MFI against concentration), CHO cells expressing cynomolgus CD96 isoform 2
[3] = target: full-length isoform 2 of human CD96 (SEQ ID NO: 128) expressed on cells (human) (UniProt P40200); assay: flow cytometry (MFI against concentration), CHO cells expressing human CD96 isoform 2
[4] = target: full-length isoform 1 of human CD96 (SEQ ID NO: 127) expressed on CHO cells (human) (UniProt P40200); assay: flow cytometry (MFI against concentration), CHO cells expressing human CD96 isoform 1
[5] = target: cynomolgus monkey CD96 on activated primary cynomolgus T cells (cynomolgus monkey); assay: flow cytometry (MFI against concentration), activated primary cynomolgus T cells

## IgG1 isotype control antibody
[1]
  Area under the curve (AUC): 4760
[2]
  Area under the curve (AUC): 6030
[3]
  Area under the curve (AUC): 5810
[4]
  Area under the curve (AUC): 43500
[5]
  Area under the curve (AUC): 1270
